Laboratory results as given in the nanobody polyreactivity screen of Harvey et al. (2022).

Experiment: yeast display, Sf9 membrane polyspecificity reagent, FACS + sequencing; frameworks hold sequencing errors
Procedure, shortened: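 After 36–48 hours of galactose induction, yeast (Saccharomyces cerevisiae BJ5465) displaying a synthetic nanobody library were stained at 4 °C for 1 hour with 10% biotinylated, detergent-solubilized Sf9 membrane reagent. Streptavidin microbeads enriched the stained cells before FACS sorting into low and high (top ~1%) gates on anti-HA and streptavidin fluorescence. Each clone's polyreactivity label reflects its gate of origin.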

With “QFQLVESGGGLVQAGGSLRLSCAASGLTFYAYARGWYRQAPGKDSELVAAISSGGSTSYADSVKGRFTISRDNAKYTVYLQMNSLKPEDTAVYYCAARPISSRFFGWGYNYWGQGTQVTVSS” as the sequence, how does the “polyreactivity (PSR sort gate)” value read?
The value was “high polyreactivity”.

For “QFQLVESGGGLVQAGGSLRLSCAASGRIFDVNAMGWSRQAPGKESELVAAISTRGGGTYYADSVKGRFTISRDNAKNTVYLQMTSLKPEDTAVYYCNVVRRYGGRGIDYWGQGTQVTVSS”, which “polyreactivity (PSR sort gate)” value is on record?
The value was “low polyreactivity”.

With “QFQLVESGGGLVQAGGSLRLSCAASGRIFGVYAMGWYRQAPVKERQLVATISLSAGRTYYADSVKGRFTISRDNAKNTVYLQMNSLKPEDTAVYYCAAQSNYSIRRHYYTFRYSYDYWGQGTQVTVSS” as the sequence, how does the “polyreactivity (PSR sort gate)” value read?
The value was “high polyreactivity”.

For “QFQLVESGGGLVQAGGSLRLSCAASGRIFSHYAMGCYRQAPGKERELVAAISSGGITYYADSVNGRFTISRDNAKNTVYLQRNSLKPEDTAVYYCAAVRRRGTTYDYWGQGTQVTVSS”, which “polyreactivity (PSR sort gate)” value is on record?
The value was “high polyreactivity”.

With “QFQLVESGGGLVQAGGSLRLSCAASGRILSGNAMGWYRQAPGKERELVAAITNAGITKYADSVKGRFTISRDNAKNTVYLQMNSLKPEDTAVYYCATDRYAYNLYDYWGQGTQVTVSS” as the sequence, how does the “polyreactivity (PSR sort gate)” value read?
Its value is “low polyreactivity”.

Which “polyreactivity (PSR sort gate)” value does the source give for “QFQLVESGGGLVQAGGSLRLSCAASGRTFSGNTMGWYRQAPGKERELVAAITGRGGSTYYADSVKGRFTISRDNAKNTVYLQMNCLKPEDTAVYYCAALRYTFAGRFDYWGQGTQVTVSS” here?
Its value is “high polyreactivity”.

Which “polyreactivity (PSR sort gate)” value does the source give for “QFQLVESGGGLVQAGGSLRLSCAASGRTFWNYAMGWYRQAPGKERELVAAISVTGTNTYYADSVKGRFTISRDNAKNTVYLQMNSLKPEDTAVYYCAARGRPGLYYWGQGTQVTVSS” here?
The value was “high polyreactivity”.

Which “polyreactivity (PSR sort gate)” value does the source give for “QFQLVESGGGLVQAGGSLRLSCAASGRTLHGYTMGWYRQAPGKVREFVATISSIGGSTYYADSVKGRFTISRDNAKNTVYLQMNSLKPEDTAVYYCNRGRARVIFSGMDYWGQGTQVTVSS” here?
The value was “low polyreactivity”.

With “QFQLVESGGGLVQAGGSLRLSCAASGRTYRYTMGWSRHAPGKERELVAAISRSGGSTYYADSVKGRFTISRDNAKTTVYLQMNSLIPEDTAVYYCAKVIYRYNETYDYWGQGTQVTVSS” as the sequence, how does the “polyreactivity (PSR sort gate)” value read?
Its value is “high polyreactivity”.

With “QFQLVESGGGLVQAGGSLRLSCAASGSIFANALGWYRQAPRKERELVAAISFSGGRTFYADSVKGRFTISRDNAKNTVYLQMNSLKPDDTTVYYCNKDYWGYFSYWKSYLYDYWGQGTQVTVSS” as the sequence, how does the “polyreactivity (PSR sort gate)” value read?
The value was “high polyreactivity”.

With “QFQLVESGGGLVQAGGSLRLSCAASGSIFDGNAMGWYRQAPGKERELVAAISRRGGSTYYADSVKGRFTISRYNAKNTVYLQMNSLKPEDTAVYYCNAYLSYFDGNYWGQGTQVTVSS” as the sequence, how does the “polyreactivity (PSR sort gate)” value read?
Its value is “high polyreactivity”.

With “QFQLVESGGGLVQAGGSLRLSCAASGSIFELNAKGLYRTAPGKERELVAAITSSGSSTYYADSVKGRFTISRDNAKNTVYLQMNRLKPEDTAVYYCFRPHDYWGQGTQVTESS” as the sequence, how does the “polyreactivity (PSR sort gate)” value read?
The value was “low polyreactivity”.

Which “polyreactivity (PSR sort gate)” value does the source give for “QFQLVESGGGLVQAGGSLRLSCAASGSTFGVNAMGWYRQAPGKERELVAAISSSGSSTYADSVKGRFTISRDNAKNTVYLQMNSLKPEDTAVYYCNKTTLLTVEYDYWGQGTQVTVSS” here?
The value was “low polyreactivity”.

For “QFQLVESGGGLVQAGGSLRLSCAASGSTFGVYAMGWYRQAPGKERELVATINSGGSTNYADSVKGLFTISRDNAKNTVYLQMNSLKPEDTAVYYCAAGPFWQDFYVYEYDYWGQGTQVTVSS”, which “polyreactivity (PSR sort gate)” value is on record?
Its value is “low polyreactivity”.

Which “polyreactivity (PSR sort gate)” value does the source give for “QFQLVESGGGLVQAGGSLRLSCAASGSTFRRNTMGWYRQAPGKEREFVAAISRRGGSTYYADSVKGRFTISRDNAKNTVYLQMNRLKPEDTAVYYCAAPGLSRLYNVYYWPYDYWGQGTQVTVSS” here?
Its value is “high polyreactivity”.

For “QFQLVESGGGLVQAGGSLRLSCAASGSTFSANAMGWYRQAPGKERELVASISRRGGSTYYADSVKGRFTISRDIAKNTVYLQMNSLKPEDTAVYYCNKRFARQGSPSEYGRSQIGYYYWGQGTQVTVSS”, which “polyreactivity (PSR sort gate)” value is on record?
Its value is “high polyreactivity”.

With “QFQLVESGGGLVQAGGSLRLSCAASGSTFTANAMGWYRQSPGKERELVAAITNSDGSTYYADSVKGRFTISRDNAKNTVYLQMNSLKPEDTAVYYCAKDYYACYWEMDYWGQGTQVTVSS” as the sequence, how does the “polyreactivity (PSR sort gate)” value read?
The value was “low polyreactivity”.

With “QFQLVESGGGLVQAGGSLRLSCAASGSTFVYYAMGWYRQAPGKERELVAAITASGGGTYYADSVKGRFTISRDNAKNTVYLQMNSLKPEDTAVYYCAAYLGWGYDYWGQGTQVTVSS” as the sequence, how does the “polyreactivity (PSR sort gate)” value read?
The value was “low polyreactivity”.

Which “polyreactivity (PSR sort gate)” value does the source give for “QFQLVESGGGLVQAGGSLRLSCAASGSTIIKNAMGWYRQAPGKERELVAAINWSVTRTYYADSVKGRFTISRDNAKNTVYLQMNSLKPEDTAVYYCAKVIARFVRYDYWGQGTQVTVSS” here?
The value was “high polyreactivity”.

For “QFQLVESGGGLVQAGGSLRLSCAASGSTYSYYAMGWYRQAPGKERELVAAISSRGGSTYYADSVKGRFTISRDNAMNTVYLQMNSLKPEDTAVYYCNADHQFRSSVSGDHDYWGQGTQVTVSS”, which “polyreactivity (PSR sort gate)” value is on record?
Its value is “high polyreactivity”.

Which “polyreactivity (PSR sort gate)” value does the source give for “QFQLVESGGGLVQAGGSLRLSCAASGVSNALGWYRQAPGKERELVAAISRSGGSTYYADSVKGRFTISRANAKNTVNLQMNSLKPEDTAVYYCAVGYTYVYRYSSHKYDYWGEGTQVTVSS” here?
The value was “high polyreactivity”.

Which “polyreactivity (PSR sort gate)” value does the source give for “QFQLVESGGGLVQAGGSLRLSCAASRFYTMGWSRQAPGKERELVAAISWSGGDTYYADSVKGRFTISRDNAKNTVYLQMTSLKPEDTAVYYCAKKTIGSYVHEPYYYWGHGTQVTVSS” here?
The value was “low polyreactivity”.

Which “polyreactivity (PSR sort gate)” value does the source give for “QFQLVESGGGLVQAGGSLRLSCADSGSIFSGYAMGRYRQEPGKDSELVASITRGGSTYYADSVKGRFTISLDNAKNNVYLQINSLKQEDTAVYYCARYGYKNRPLGMDYWGQGTQVTVSS” here?
The value was “low polyreactivity”.

Which “polyreactivity (PSR sort gate)” value does the source give for “QFQLVESGGGLVQAGGSLRLSCASSGSIIGIYAMGWYRQAPGKERELVAAISWSGGSTYYADSVKGRFTISRDNAKNTVYLQMNSLKPEDTAVYYCAARGHYQYYWGQGTQVTVSS” here?
Its value is “high polyreactivity”.

Which “polyreactivity (PSR sort gate)” value does the source give for “QFQLVESGGGLVQAGGSLRLSSAASGSIFYTNAMGWYRQAPGKEREFVAGITRRGTSTNYADSVKGRFTISRDNAKNSVYLQMNSLKPEVTAVYYCNARYYLYWGQGTQVTVSS” here?
The value was “low polyreactivity”.

For “QFQLVESGGGLVQARGRLRLSCAASGSIFSYNAMGWYRQAPGKERELVARISSSGSTNYADSVKGRFTISRDNAKNTVYIQMNSLKPEDTAVYYCNKDPYWPSWTRRRREYYYWGQGTQVTVSS”, which “polyreactivity (PSR sort gate)” value is on record?
Its value is “high polyreactivity”.

Which “polyreactivity (PSR sort gate)” value does the source give for “QFQLVESGGGLVQARGSLRLSCAASGSIFDLNAMGWYRPAPGKERELVAAISSGGGTYYADSVKGRFTISRDNAKNTVYFQMYSLKPDDSAVYYCAAGKSSPRRIFEYWGQGTEVTVSS” here?
Its value is “high polyreactivity”.

Which “polyreactivity (PSR sort gate)” value does the source give for “QFQLVESGGGLVQARGSLRLSCAASGSTFRYYGMGWYRQTPGKERELVAAISSSGGSTYYADSVKGRFTISRDNAKITVYLKMNSLKPEDNAVYYCAAGSRFVSSRLYYWGQGTQVTVSS” here?
The value was “high polyreactivity”.

Which “polyreactivity (PSR sort gate)” value does the source give for “QFQLVESGGGLYQAGGSLRLSCASSGITLYFYAMGWYRQAPGKVRELVAAISRGGRTYYADSVKGRFTISRDNAKNTVYLQMNSLKPEDTAVYYCAARYTSEYSAFDYWGQGTQVTVSS” here?
Its value is “low polyreactivity”.

With “QFQLVESGGVLDQAGCSLRLSCAASGYTFYANAMGWYRQAPGKEREFVASIPWSGGSTYYADSVKGRFTISRDNAKNTVYLQMNSLKPEDTAVYYCAAESWFKYDYWGQGTQVTVSS” as the sequence, how does the “polyreactivity (PSR sort gate)” value read?
Its value is “low polyreactivity”.

With “QFQLVESGVGLVQAGGSLRFSCAASGRIFMPNAMGWYRQSPGKEREFVASISWSGGSTYYADSVKGRFTISRDNAKTTDYLQMNSLKPEDTAVYYCNARYGKRYYYWGQGTQVTVSS” as the sequence, how does the “polyreactivity (PSR sort gate)” value read?
The value was “low polyreactivity”.

With “QFQLVESVRGLVQAGVSLRLSCAASGSTFNFYAMGLYRQPPGKERELVAAIRQSSGRTYYADSVKGRFTISRDNGNYTVYLQMNSLKPEDTAVYYCAAVRYNFNFKMYYWGQGTQVTVSS” as the sequence, how does the “polyreactivity (PSR sort gate)” value read?
Its value is “high polyreactivity”.

For “QFQLVESWGGLVQAGGSLRLSCAASGTMGWYRQAPVKERELVAAISQSGGSTYYADSVKGRFTISRDNAKNTVYLQMNSLKPEDTAVYYCAVDPLYGDPRRDYWGQGTQVTVSS”, which “polyreactivity (PSR sort gate)” value is on record?
Its value is “low polyreactivity”.

With “QFQLVETGGGLDQAGGSLRLSCAASGTTFGVYAMGWYRQAPGKERELVAVITSRGGSTYYADSVKGRFTISRDNAKNTVYLQMNSLIPEDTAVYYCNVDSAYRRPPYDYWGQGTQVTVSS” as the sequence, how does the “polyreactivity (PSR sort gate)” value read?
The value was “high polyreactivity”.

Which “polyreactivity (PSR sort gate)” value does the source give for “QGQHVESGGGLVQAGGSLRLSCAASGTFVYAMGWYRQAPGKERELVAAISYSGGSTYYADSVKGRFTISRDNAKNTVYLQMNSLKPEDTAVFYCNVLGWYYTTTKYDYWGQGTQVTVSS” here?
Its value is “high polyreactivity”.

For “QGQIVESGGGLGQAGGSLRLSCAASGSIFWANAMGWYSQSPWKERELVAAISSSGGRTYYADSVKGRFTISRDNAKNTVYLQMNSLKPEDTAVHYCNKLRLPYYEQGDYWGQGTQVTVSS”, which “polyreactivity (PSR sort gate)” value is on record?
Its value is “high polyreactivity”.

For “QGQLEDSGGGLVQAGGSLRLSCAASGFSFRSYGMGRYRQAPGKERELVAVISRSGGNTYYAASVKGRFTISRHNAKNTVYLQMHSLKPEDTAVYYCAATLVGTVIRRFDDWGQGTQVTVSS”, which “polyreactivity (PSR sort gate)” value is on record?
Its value is “high polyreactivity”.

For “QGQLEESGGGLVQAGGSLRLSCAAAGITFVDYSMGWYRQAPGKEMELVAGINWSGDGTSYADSVKGRFTISRDNAKNTVYLLMNSLKPEDTAVYDCAAYWYYYLMDYWGQGTQVTVSS”, which “polyreactivity (PSR sort gate)” value is on record?
Its value is “low polyreactivity”.

With “QGQLGESGGGLVQAGGSLRLTCAASGNIFFVYAMGWYRQAPGNEWELVAAITWGGGSTNYADSVKGRFTISRDNAKKTVYLQMNSLKPEDTAVYYCATDNRYVVDSYYWGQGTQVTVSS” as the sequence, how does the “polyreactivity (PSR sort gate)” value read?
Its value is “high polyreactivity”.

For “QGQLLESGGGLVQAGGSLRLSCAASRFNFRFYAIGWYRQAPGKERELVASITQGGSTYYADSVKGSFTISRDNAKNTVYLQMNSLKPVDTAVYSCAARYLGGRRSGDYSRYYWGQGTQVSVSS”, which “polyreactivity (PSR sort gate)” value is on record?
The value was “high polyreactivity”.

Which “polyreactivity (PSR sort gate)” value does the source give for “QGQLVDSGGGLVQAGGSLRLSCAASGSTFKNNAMGWYRQAPGKEREFVASISKRGGSTYYADSVKGRFTISRDNAKNTVYLQMNSMKPEDTAVYYCAKTYWSYGLSHGDYGEFDYWGQGTQVTVSS” here?
The value was “high polyreactivity”.

With “QGQLVESAGGLVQAGGSLRLSCAASGSILWHYAMGWYRQAHGKERELVAAISGSGSTIYADSVKGRFTISRDNAKNTVYLQLITLKPEDTADYYCARVHGTSESKYYYWGQGTQVTVSL” as the sequence, how does the “polyreactivity (PSR sort gate)” value read?
Its value is “low polyreactivity”.

Which “polyreactivity (PSR sort gate)” value does the source give for “QGQLVESGAGLVKAGGSLRISCAASGYTFPSNARAWYRHAPGTPRQLVAAISSGGRTNYADSLKGRFTISRDNAKNTVYLQMNRLKPEDTAVYNCNADGGPGYPSAYDYWVQGTQVTVSS” here?
The value was “low polyreactivity”.
